# Measured values: publication PMC7299281
# Target: prefusion S protein of SARS-CoV (SARS-CoV)
row,Substance,IC50 of neutralisation of SARS-CoV pseudovirus
1,COVA1-16 (antibody),2.5 µg/mL
2,COVA2-02 (antibody),0.61 µg/mL
